Assay results: PMC2885309

Target: 47 aa syntaxin peptide corresponding to the SNARE interaction part of the syntaxin sequence (aa 201-248) (UniProt P32851)
Assay: SPR; Biacore 2000, syntaxin peptide covalently immobilised on a CM5 chip; 0.13 mg/ml S-B in buffer B for 5 min; then washing or denaturing reagents 1 min each; 25°C

S-B, fusion of brevin to the C-terminus of SNAP25, sequence (chain): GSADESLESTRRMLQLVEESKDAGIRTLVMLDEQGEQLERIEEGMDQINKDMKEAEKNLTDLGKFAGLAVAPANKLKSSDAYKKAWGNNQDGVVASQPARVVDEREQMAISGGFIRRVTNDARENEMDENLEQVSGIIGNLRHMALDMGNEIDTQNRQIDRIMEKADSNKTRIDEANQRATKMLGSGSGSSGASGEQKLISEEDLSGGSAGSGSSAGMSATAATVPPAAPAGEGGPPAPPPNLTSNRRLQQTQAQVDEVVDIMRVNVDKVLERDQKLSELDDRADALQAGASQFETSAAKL

S-B, fusion of brevin to the C-terminus of SNAP25
percent of originally bound S-B resistant to the harsh treatments: < 50%
